Patent US20220251222A1, “IL-6Ralpha/IL-8R BISPECIFIC BINDING AGENTS FOR INHIBITING CANCER CELL MIGRATION” (The Johns Hopkins University, priority 2019, published 2022)

Target: human IL-6 (residues 3-185) displayed on the surface of yeast (human) (UniProt P05231)
Experiment: flow cytometry titration of IL-6Rα ECD on IL-6-displaying yeast

human IL-6Rα extracellular domain (ECD), residues 89-303 of the mature protein, with C-terminal biotin acceptor peptide and hexahistidine, biotinylated (from UniProt P08887 108-322) (receptor)
Kd: 88 nM
